The values that follow come from publication PMC9504416, “Functional Characterization of an Arabidopsis Profilin Protein as a Molecular Chaperone under Heat Shock Stress” (Molecules, 2022).

The data set deals with the molecule itself. In words: native gel or EMSA; 10% native PAGE with silver staining; concentration-dependent aliquots of recombinant protein, incubated at 25 °C for 30 min and centrifuged at 13,000 x g for 15 min. On the technique in general: A gel shift assay detects complexes by their altered migration in electrophoresis.

B1: Arabidopsis thaliana profilin-2 (AtPFN2), recombinant (natural protein, UniProt Q42418 1-131, looked up)
chain: MSWQSYVDDHLMCEVEGNHLTHAAIFGQDGSVWAQSSAFPQLKPAEIAGINKDFEEAGHLAPTGLFLGGEKYMVVQGEAGAVIRGKKGPGGVTIKKTTQALVFGIYDEPMTGGQCNLVVERLGDYLIESGL
notes: Profilin-2 (AtPFN2) of Arabidopsis thaliana, amplified by PCR from an A. thaliana cDNA library; single band of 14 kDa on SDS-PAGE; Homo-oligomer of various sizes; The vector pET28(a) probably adds the His tag; no removal of the tag is told; also called Arabidopsis PFN2; source: E. coli BL21 (DE3), pET28(a), purified (HisPur cobalt resin, imidazole elution; SEC)
Consider B1, for which the binding result is “binds”.
